The values below come from the Immune Epitope Database (IEDB).

As a reminder, the IC50 is the concentration at which inhibition is half-maximal. Higher therefore signals a need for much substance. The term Kd denotes the constant that tells how readily two partners part at equilibrium.

Test [1] concerns the target HLA-A*02:01. Nature of the test: IEDB peptide-MHC binding, purified MHC/competitive/fluorescence; ≥ and ≤ were set here for values at or beyond the usual limits of such assays.
Test [2] has as its target HLA-B*51:01. Kind of test: IEDB peptide-MHC binding, purified MHC/competitive/radioactivity; filed as Kd, often an IC50 or EC50 that approximates it; ≥ and ≤ were set here for values at or beyond the usual limits of such assays.
Test [3] concerns the target HLA-A*69:01. Nature of the test: IEDB peptide-MHC binding, purified MHC/direct/fluorescence; filed as Kd, often an IC50 or EC50 that approximates it; ≥ and ≤ were set here for values at or beyond the usual limits of such assays.
For test [4], the target named is HLA-A*02:01. The test is described as above.
The target in test [5] is HLA-A*24:02. Nature of the test: IEDB peptide-MHC binding, purified MHC/competitive/radioactivity; filed as Kd, often an IC50 or EC50 that approximates it; ≥ and ≤ were set here for values at or beyond the usual limits of such assays.
The target in test [6] is HLA-B*40:01. Nature of the test: IEDB peptide-MHC binding, purified MHC/direct/fluorescence; filed as Kd, often an IC50 or EC50 that approximates it; ≥ and ≤ were set here for values at or beyond the usual limits of such assays.
Test [7] addresses HLA-B*53:01. Nature of the test: IEDB peptide-MHC binding, purified MHC/competitive/radioactivity; filed as Kd, often an IC50 or EC50 that approximates it; ≥ and ≤ were set here for values at or beyond the usual limits of such assays.
In test [8] the target is HLA-A*30:02. Described as above.
Test [9] deals with HLA-A*02:01. Nature of the test: IEDB peptide-MHC binding, purified MHC/competitive/fluorescence; filed as Kd, often an IC50 or EC50 that approximates it; ≥ and ≤ were set here for values at or beyond the usual limits of such assays.
In test [10] the target is HLA-B*15:01. Kind of test: IEDB peptide-MHC binding, purified MHC/direct/fluorescence; filed as Kd, often an IC50 or EC50 that approximates it; ≥ and ≤ were set here for values at or beyond the usual limits of such assays.
The target in test [11] is HLA-B*07:02. Described as above.
In test [12] the target is HLA-B*58:01. The test is described as above. Particulars: source organism: Pseudomonas aeruginosa.
The target of test [13] is HLA-A*03:01. The description is as above.
Test [14] deals with HLA-A*11:01. Described as above.
Test [15] deals with HLA-A*02:06. Nature of the test: IEDB peptide-MHC binding, purified MHC/competitive/radioactivity; filed as Kd, often an IC50 or EC50 that approximates it; ≥ and ≤ were set here for values at or beyond the usual limits of such assays. The settings on record: source organism: Dengue virus 1 Brazil/97-11/1997.
Test [16] deals with HLA-A*01:01. Nature of the test: IEDB peptide-MHC binding, purified MHC/direct/fluorescence; filed as Kd, often an IC50 or EC50 that approximates it; ≥ and ≤ were set here for values at or beyond the usual limits of such assays.
Where [17] appears, read: source organism: Sudan ebolavirus.
[18] abbreviates: source organism: Dengue virus 4 Philippines/H241/1956.
Setting [19] is: source organism: Campylobacter jejuni RM1221.
Where [20] appears, read: source organism: Zaire ebolavirus.
[21] abbreviates: source organism: Dengue virus 3 Martinique/1243/1999.
Setting [22] is: source organism: Dengue virus 3 Singapore/8120/1995.
The mark [23] stands for this setting: source organism: Vaccinia virus WR.
Setting [24] is: source organism: West Nile virus.
Where [25] appears, read: source organism: Dengue virus 1 Brazil/97-11/1997.
Where [26] appears, read: source organism: Orthomarburgvirus marburgense.
[27] abbreviates: source organism: Dengue virus 2 Jamaica/1409/1983.
[28] abbreviates: source organism: Vibrio vulnificus.
The mark [29] stands for this setting: source organism: Francisella tularensis subsp. holarctica LVS.
The mark [30] stands for this setting: source organism: Cryptosporidium hominis.
The mark [31] stands for this setting: source organism: Cryptosporidium parvum.

In [1] (setting [17]), MVPLHIPEG came in with an IC50 of 38.2 µM.

With VPLAGPMVA, the Kd in test [2] (setting [18]) was 17000 nM. Take GIYHDICEI: the Kd was at least 20 µM in [3] (setting [19]) and 162 nM in test [4] (setting [19]).

In test [1] (setting [20]), LSFTVVSNG displayed an IC50 of at least 325 µM. With YLFNWAVRT, in test [1] (source organism: Hepatitis C virus genotype 1), the IC50 came out at 5 µM. With VYRIKQQGI, the Kd in test [5] (setting [21]) is 464 nM. As to VAWRTATLI, the Kd in test [2] (setting [21]) came to 137 nM. In [1] (setting [20]), FQESADSFL displayed an IC50 of 14 µM. ALLEDPVGT showed an IC50 in test [1] (source organism: Human alphaherpesvirus 1 strain 17) of 0.028 µM.

In the case of EEFCDMLRL, in [6] (source organism: Mammarenavirus lassaense), the Kd came to 255 nM. Take MPGTRKVMEI: the dissociation constant (Kd) turned out to be 1100 nM in test [2] (setting [22]) and 76.4 nM in test [7] (setting [22]). On to QNKEGDQYIY, for which the Kd in [8] (source organism: Dengue virus 1 Nauru/West Pac/1974) came out at 1350 nM. As for LPEEQDQNYV, the Kd in [2] (setting [21]) was determined as 11900 nM.

As to PPFGESNIV, in [2] (setting [21]), the Kd amounted to 1790 nM. As for LLFLKDVEP, in test [9] (setting [23]), the Kd was determined as 13.4 nM. SVKEDLVAY registered a Kd in test [10] (source organism: Yellow fever virus 17D) of 95.5 nM. Consider RRRPVTRPL, for which the Kd in test [11] (source organism: Candidatus Solibacter) turned out to be 3.4 nM. On to KGGEAQFLV, for which, in test [12], the Kd is 738 nM. CNLTSTWVTY: in test [8] (setting [21]), the Kd was at least 68900 nM. As to GVNKQTAMK, the dissociation constant Kd in test [13] (setting [24]) is 600 nM; in test [14] (setting [24]), 20.3 nM.

WAYHGSYEV: the Kd in test [15] came out at 24.5 nM; in test [2] (setting [25]), 11.1 nM.

As for HLALTCILK, the Kd in [13] (source organism: Salmonella enterica subsp. enterica serovar Typhi) is 123 nM. HLHQQLSNT registered an IC50 in test [1] (setting [17]) of 15 µM. In the case of GLYPQLSAI, the figures for the Kd in test [3] (setting [26]) and in [4] (setting [26]) were 3.86 µM and 123 nM, respectively. For LAGFMAYMI, the figures for the Kd in test [2] (setting [18]) and in test [7] (setting [18]) were 7090 nM and 2120 nM, respectively. On to YAQIQPHWI, for which, in test [2] (setting [27]), the Kd came out at 1080 nM. For the sequence LWPKTHTLW, the Kd in test [5] (setting [18]) is 44.9 nM. Consider HLAGFIHAC, for which the Kd in [4] (setting [28]) amounted to 21.5 nM; in [10] (setting [28]) it was 2280 nM. GYHTQTAGPW: the Kd in test [5] (setting [27]) turned out to be 3250 nM. Sequence LEKTHNGKL yielded a Kd in test [6] (source organism: Influenza A virus (A/RI/5-/1957(H2N2))) of 124 nM.

Take EEFFCVHGM: the Kd in test [6] (source organism: Mycobacterium tuberculosis) is 167 nM. Consider VPGLPGTVL, for which the Kd in test [11] (source organism: SARS-CoV1) was determined as 91.5 nM; in test [14] (source organism: SARS-CoV1), 4550 nM. For the sequence LNLSGVNNL, the IC50 in [1] (setting [20]) was at least 77.5 µM. The sequence SVGGVFTSV returned an IC50 in test [1] (source organism: West Nile virus NY-99) of 0.247 µM. Consider FSLGILCVSI, for which the Kd in test [15] is 3.63 nM; in [2] (setting [25]), at least 39500 nM.

For AFPQSNAVI, the Kd in test [5] (setting [25]) was determined as 2900 nM. For the sequence VHQVFGTAY, in [8] (setting [25]), the Kd was determined as 599 nM.

On to KVASEGFQY, for which the Kd in test [8] (setting [25]) came to 28.9 nM. As to FVEGLSGATW, the Kd in [7] (setting [25]) is 14.4 nM.

As to KLYSYGIGY, the dissociation constant (Kd) in test [13] (setting [29]) came to 1.4 nM; in test [14] (setting [29]), 75.4 nM. As to TKLEGKIVQY, the Kd in test [8] (setting [25]) was found to be 7040 nM. YLIHDNIMYT had a Kd in test [9] (setting [23]) of 1.4 nM. Take LAYVVIGIL: the Kd in test [2] (setting [21]) came to 1320 nM. Turning to SGFGGETPV, the Kd in [3] (setting [30]) was found to be 13.5 µM; in test [4] (setting [30]) it was 863 nM. TPEGEVGAI: the Kd in test [7] (setting [25]) is at least 40200 nM. Sequence ILLSCIHTT registered a Kd in [9] (source organism: Vaccinia virus Copenhagen) of 1.2 nM. On to YIGEVLVSV, for which, in test [1] (source organism: Homo sapiens), the IC50 is 0.01 µM. For the sequence STKNILVTV, the figures for the Kd in [3] (setting [31]) and in [4] (setting [31]) were 0.0607 µM and 416 nM, respectively. Take GLNLEGSGV: the IC50 in [1] (setting [17]) came out at 3.86 µM. With PPTAGILARW, the Kd in test [7] (setting [25]) was found to be 10300 nM. In test [1] (setting [17]), STSNGLITS displayed an IC50 of at least 177 µM. Regarding KISNTTFEV, the Kd in test [9] (source organism: Vaccinia virus) stood at 1.9 nM. For the sequence LTSSSKYTY, the Kd in test [16] (source organism: Amur virus) was found to be 33 nM. As for DSDGSFFLY, the Kd was at least 25.1 µM in [3] (source organism: Homo sapiens), 25 nM in test [16] (source organism: Homo sapiens) and at least 20600 nM in test [14] (source organism: Homo sapiens). Take AARHKHQVM: the Kd in [11] (source organism: Danio rerio) amounted to 64.8 nM.
